Assay [1] addresses GIF H232A, residues 1-265, C-terminal AviTag, biotinylated (Orf virus) (UniProt Q9J5U5). In words: BLI; biotinylated GIF (wild type or mutant) on streptavidin-coated biosensors, quenched with biocytin; ligand GM-CSF 1-8 uM or IL-2 3.75-30 nM; PBS pH 7.4, 0.01% BSA, 0.002% Tween-20; 298 K; Octet RED96; 1:1 interaction model; averages of triplicates. On the technique in general: In BLI a coated tip is dipped into the sample, and binding shifts an interference pattern.

The target in assay [2] is GIF K211A, residues 1-265, C-terminal AviTag, biotinylated (Orf virus) (UniProt Q9J5U5). The description is as above.
Assay [3] has as its target GIF R106A/R188A, residues 1-265, C-terminal AviTag, biotinylated (Orf virus) (UniProt Q9J5U5). The assay is described as above.
The target of assay [4] is GIF R188A, residues 1-265, C-terminal AviTag, biotinylated (Orf virus) (UniProt Q9J5U5). The description is as above.
The target of assay [5] is GIF R45A, residues 1-265, C-terminal AviTag, biotinylated (Orf virus) (UniProt Q9J5U5). Described as above.
For assay [6], the target named is GIF R45A/R106A, residues 1-265, C-terminal AviTag, biotinylated (Orf virus) (UniProt Q9J5U5). The assay is described as above.
The target in assay [7] is T1, Orf virus GM-CSF/IL-2 inhibition factor (GIF), residues 1-265, C-terminal His6-tag (Orf virus, UniProt Q9J5U5, N-linked glycans).
T1 construct: also called His-tagged GIF; Orf GIF; source: HEK293T, transient expression (pHLsec), secreted; alone purified by IMAC and SEC with 0.15% CHAPS
T1 sequence: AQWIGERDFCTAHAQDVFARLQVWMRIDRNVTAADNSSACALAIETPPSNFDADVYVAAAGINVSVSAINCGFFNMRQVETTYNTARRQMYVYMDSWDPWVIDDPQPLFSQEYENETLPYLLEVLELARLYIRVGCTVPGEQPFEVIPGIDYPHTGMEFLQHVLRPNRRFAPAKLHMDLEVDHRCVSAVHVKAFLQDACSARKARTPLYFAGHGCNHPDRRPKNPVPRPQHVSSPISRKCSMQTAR
In words: SEC-MALS; complexes purified after co-expression of GIF and cytokine in HEK293T; 1-2 mg/ml; Superdex Increase 10/300 GL in HBS pH 7.5, 298 K. Particulars: both partners purified.

Assay [8] concerns the target T2, Biotinylated Orf GIF, residues 1-265, C-terminal AviTag (Orf virus, UniProt Q9J5U5, biotin (AviTag, by co-expressed E. coli BirA)).
T2 chain: T1 sequence
In words: BLI.

Assay [9] has as its target T3, Biotinylated Orf GIF, residues 1-265, C-terminal AviTag (Orf virus, UniProt Q9J5U5, biotin (AviTag, by co-expressed E. coli BirA)).
T3 construct: also called biotinylated GIF; wild-type GIF; source: HEK293T, co-transfected with BirA (pDisplayBirA-ER), expression medium desalted into HBS; not shown: AviTag, C-terminal, kept
T3 sequence: T1 sequence
In words: BLI; biotinylated GIF on streptavidin sensors, quenched with biocytin; cytokine in solution (GM-CSF 1-8 μM, IL-2 3.75-30 nM); PBS pH 7.4, 0.01% BSA, 0.002% Tween-20, 298 K; 1:1 model, triplicates. Particulars: one partner purified.

B1: ovine GM-CSF (granulocyte macrophage colony-stimulating factor), residues 18-144, as used as the ligand in BLI (ligand)
chain: APTRQPSPVTRPWQHVDAIKEALSLLNDSTDTAAVMDETVEVVSEMFDSQEPTCLQTRLELYKQGLRGSLTSLTGSLTMMASHYKKHCPPTQETSCETQIITFKSFKENLKDFLFIIPFDCWEPVQK
Usually Kd stands for a measure of binding affinity in units of concentration. Low readings indicate a tighter complex, high ones a looser complex. Turning to B1, the Kd in assay [1] stood at 670 nM; in assay [2] it was 3700 nM; in assay [3], 270 nM; in assay [4], 570 nM; in [5], 280 nM; in assay [6] it was 380 nM.

B2: ovine GM-CSF, residues 18-144, C-terminal His6-tag, from HEK293T (ligand, UniProt P28773 18-144, looked up)
chain: B1 chain
notes: also called oGM-CSF; source: HEK293T, transient expression (pHLsec); purified (TALON IMAC, SEC) or co-expressed with GIF and purified as a complex
What is called stoichiometry N is a count of units in the complex or per binding partner. In the case of B2, the “stoichiometry N” value in assay [7] was 2 cytokines per GIF dimer (2:2).

B3: ovine GM-CSF as used as ligand in bio-layer interferometry (ligand, UniProt P28773 18-144, looked up)
chain: B1 chain
notes: also called oGMCSF; oGM-CSF
For orientation: koff means the rate constant with which the complex falls apart. Low values mean slow dissociation, high ones fast dissociation. For B3, in assay [8], the koff came to 6.2e-05 s⁻¹. In assay [9], this molecule registered a Kd of 27 nM.

B4: ovine IL-2 (interleukin-2), residues 21-155, as used as the ligand in BLI (ligand)
chain: APTSSSTGNTMKEVKSLLLDLQLLLEKVKNPENLKLSRMHTFNFYMPKVNATELKHLKCLLEELKLLEEVLDLAPSKNLNTREIKDSMDNIKRIVLELQGSETRFTCEYDDATVKAVEFLNKWITFCQSIYSTMT
Regarding B4, the Kd in [1] stood at 0.63 nM; in assay [2], 0.46 nM; in assay [3] it was 5.3 nM; in assay [4], 4.8 nM; in [5], 0.69 nM; in assay [6] it was 0.45 nM.

B5: ovine IL-2 as used as ligand in bio-layer interferometry (ligand, UniProt P19114 21-155, looked up)
chain: B4 chain
notes: also called oIL-2
B5: the koff in [8] was determined as 0.00015 s⁻¹. The same molecule showed a Kd in [9] of 0.47 nM.

B6: ovine IL-2, residues 21-155, C-terminal His6-tag, from HEK293T (ligand, UniProt P19114 21-155, looked up)
chain: B4 chain
notes: also called oIL-2; source: HEK293T, transient expression (pHLsec); purified (TALON IMAC, SEC) or co-expressed with GIF and purified as a complex
As to B6, in [7], the “stoichiometry N” value was 2 cytokines per GIF dimer (2:2).

For the origin of these results see publication PMC5103067, “Structural basis of GM-CSF and IL-2 sequestration by the viral decoy receptor GIF” (Nature Communications, 2016).
